Laboratory results: the supplement of paper PMC9876800

Tested on: peptide library, one residue held at a place counted from the S/T acceptor
Assay: relative phosphorylation of the sub-library (ratio to the mean residue at this position); human; higher = residue favoured
In short: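 Relative sub-library phosphorylation is a ratio to the mean residue at the same position. Purified recombinant kinases were incubated under kinase-specific conditions with biotinylated degenerate peptide sub-libraries, each fixing one residue at one position around a central Ser/Thr, using 50 μM peptide and 50 μM ATP spiked with γ-32P-ATP for 90 min. Spots captured on streptavidin membranes were phosphorimaged and quantified by densitometry.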

CDKL1, construct: aa2-304, sequence (Q00532 2-304, looked up): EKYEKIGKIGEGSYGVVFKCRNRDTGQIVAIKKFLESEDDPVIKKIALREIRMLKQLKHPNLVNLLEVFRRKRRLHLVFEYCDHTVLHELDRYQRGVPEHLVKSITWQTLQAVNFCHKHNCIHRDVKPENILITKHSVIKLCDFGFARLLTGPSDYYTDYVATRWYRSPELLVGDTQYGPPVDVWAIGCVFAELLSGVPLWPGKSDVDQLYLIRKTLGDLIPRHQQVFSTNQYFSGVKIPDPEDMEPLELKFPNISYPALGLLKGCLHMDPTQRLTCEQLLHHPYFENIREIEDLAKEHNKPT
CDK10, construct: Full length, sequence (Q15131 whole entry, looked up): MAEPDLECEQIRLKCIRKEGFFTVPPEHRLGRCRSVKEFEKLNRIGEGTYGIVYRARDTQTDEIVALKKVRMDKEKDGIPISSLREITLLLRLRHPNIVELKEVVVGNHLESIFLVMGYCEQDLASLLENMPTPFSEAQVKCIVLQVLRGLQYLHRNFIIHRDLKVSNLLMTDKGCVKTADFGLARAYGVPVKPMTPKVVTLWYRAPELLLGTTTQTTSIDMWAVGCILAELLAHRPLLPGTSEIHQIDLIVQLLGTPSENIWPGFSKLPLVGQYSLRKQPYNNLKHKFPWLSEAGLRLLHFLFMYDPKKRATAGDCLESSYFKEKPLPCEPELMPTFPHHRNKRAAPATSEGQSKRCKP

CDK10, construct: Full length (from UniProt Q15131)
relative phosphorylation
Conditions	at +1	at +2	at +3	at +4	at -1	at -2	at -3	at -4	at -5
A fixed	0.232	0.641	0.676	0.671	0.931	0.896	0.838	0.851	0.845
D fixed	0.124	0.342	0.305	0.505	0.378	0.311	0.302	0.355	0.357
E fixed	0.115	0.297	0.26	0.337	0.231	0.244	0.276	0.361	0.293
F fixed	0.303	0.554	0.721	0.643	0.669	0.667	0.635	0.782	1.02
G fixed	1.3	0.952	0.795	1.09	1.56	0.715	1.01	0.955	1.05
H fixed	0.235	1.22	1.23	1.37	0.915	0.821	1.11	1.13	1.08
I fixed	0.282	0.598	0.67	0.655	0.284	0.724	0.722	0.652	0.713
K fixed	0.397	3.05	1.66	2.1	2.08	1.64	1.66	2.23	2.24
L fixed	0.296	0.683	0.66	0.661	0.787	1.15	0.78	0.658	0.78
M fixed	0.32	0.572	0.618	0.638	1.01	1.06	0.776	0.831	0.757
N fixed	0.247	0.864	0.852	0.868	0.786	0.753	0.749	0.841	0.741
P fixed	11.8	0.782	1.13	1.02	1.58	2.09	0.88	1.08	0.97
Q fixed	0.294	0.967	0.874	1.24	0.859	0.958	0.874	0.973	0.911
R fixed	0.405	3.58	4.52	2.61	2.65	2.65	3.91	2.3	2.25
V fixed	0.245	0.515	0.716	0.691	0.408	0.731	0.625	0.628	0.605
W fixed	0.241	0.541	0.621	0.967	1.11	0.872	0.997	1.46	1.26
Y fixed	0.209	0.843	0.686	0.938	0.77	0.727	0.86	0.918	1.12
pThr fixed	0.506	0.924	0.88	0.879	0.602	0.737	0.853	0.941	0.789
pTyr fixed	0.461	0.367	0.508	0.431	0.375	0.388	0.538	0.559	0.537

CDKL1, construct: aa2-304 (from UniProt Q00532)
relative phosphorylation
Conditions	at +1	at +2	at +3	at +4	at -1	at -2	at -3	at -4	at -5
A fixed	1.42	0.825	0.9	0.849	0.875	0.874	0.724	0.985	0.964
D fixed	0.679	0.924	0.793	0.858	0.693	0.715	0.534	0.874	0.771
E fixed	0.721	0.803	0.747	0.766	0.67	0.739	0.538	0.917	0.809
F fixed	0.888	0.829	0.924	0.916	0.835	0.724	0.531	0.934	1.21
G fixed	1.15	0.764	0.865	1.04	1.56	1.01	0.617	1.01	1
H fixed	1.02	1.22	1.13	1.07	1.02	0.727	0.593	0.926	0.987
I fixed	0.732	0.881	0.865	0.856	0.644	0.96	0.537	0.883	0.961
K fixed	1.25	1.52	1.43	1.31	1.61	0.898	0.852	1.22	1.08
L fixed	0.755	0.898	0.928	0.939	0.988	0.909	0.549	0.909	0.976
M fixed	0.862	0.841	0.9	0.953	1.19	0.774	0.549	0.937	0.96
N fixed	0.871	1.05	1	1.08	1.01	0.778	0.585	0.925	0.919
P fixed	1.92	0.774	0.978	0.98	1.02	3.55	0.704	1.05	0.918
Q fixed	0.894	1.03	1.05	1.07	1.05	0.856	0.707	1.08	0.972
R fixed	1.33	2.02	1.63	1.47	1.44	1.21	7.35	1.54	1.63
V fixed	0.744	0.888	0.944	0.83	0.736	0.873	0.54	0.967	0.896
W fixed	0.819	0.808	0.899	1.09	0.768	0.71	0.539	0.944	0.889
Y fixed	0.941	0.931	1.02	0.907	0.884	0.698	0.55	0.899	1.06
pThr fixed	0.811	0.892	0.844	0.824	0.778	0.799	0.576	0.837	0.737
pTyr fixed	0.652	0.663	0.733	0.692	0.717	0.75	0.786	0.876	0.726
